For assay [1], the target named is T1, sortilin T770W (human, UniProt Q99523 78-831, T770W).
T1 sequence (looked up): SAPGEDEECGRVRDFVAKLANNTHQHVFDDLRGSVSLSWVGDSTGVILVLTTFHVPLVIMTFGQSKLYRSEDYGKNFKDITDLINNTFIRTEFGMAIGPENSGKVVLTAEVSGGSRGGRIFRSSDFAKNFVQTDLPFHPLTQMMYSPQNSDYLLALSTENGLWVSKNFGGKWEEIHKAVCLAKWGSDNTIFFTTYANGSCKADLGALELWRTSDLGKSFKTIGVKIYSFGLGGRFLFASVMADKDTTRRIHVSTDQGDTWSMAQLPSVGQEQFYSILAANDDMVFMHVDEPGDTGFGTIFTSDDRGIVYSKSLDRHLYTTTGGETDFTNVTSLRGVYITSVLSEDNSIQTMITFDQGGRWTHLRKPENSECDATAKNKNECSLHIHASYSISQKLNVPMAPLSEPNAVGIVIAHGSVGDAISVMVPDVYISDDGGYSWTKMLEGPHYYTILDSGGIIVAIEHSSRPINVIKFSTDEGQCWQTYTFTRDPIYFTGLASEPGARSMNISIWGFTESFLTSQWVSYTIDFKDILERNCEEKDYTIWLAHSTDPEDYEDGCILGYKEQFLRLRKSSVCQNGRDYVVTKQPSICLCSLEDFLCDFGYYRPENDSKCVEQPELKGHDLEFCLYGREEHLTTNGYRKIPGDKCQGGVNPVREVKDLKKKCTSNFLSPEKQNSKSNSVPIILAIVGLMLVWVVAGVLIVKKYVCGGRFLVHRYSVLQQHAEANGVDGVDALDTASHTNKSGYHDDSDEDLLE
Kind of assay: cell-based or functional assay.

Assay [2] concerns the target T2, sortilin A773W (human, UniProt Q99523 78-831, A773W).
T2 sequence (looked up): T1 sequence (looked up) with W693T, A696W
Kind of assay: cell-based or functional assay.

Assay [3] has as its target T1, sortilin T770W. In words: co-IP; HEK293MSR cells overexpressing sortilin WT or TMD mutants along with NSG1; lysis in 5 mM CHAPS buffer; IP with rabbit anti-sortilin (control rabbit IgG), protein A-agarose, 4 °C; NSG1 normalized to precipitated sortilin, percent of WT; five independent experiments. As to conditions: partners not purified.
For another assay, the target named is T3, sortilin Y781K (human, UniProt Q99523 78-831, Y781K).
T3 construct: signal peptide in the construct; propeptide too; Full-length human SORT1 with a mutation at the cytoplasmic border of the TMD; source: HEK293MSR, transfected, in lysate (5 mM CHAPS)
T3 sequence (looked up): T1 sequence (looked up) with W693T, Y704K
The description is as above. As to conditions: partners not purified.

Assay [4] deals with T2, sortilin A773W. The assay is described as above. To be noted: partners not purified.

1 molecule from publication PMC12603737, “Transmembrane domain interactions underlie NSG1 regulation of sortilin ectodomain shedding” (The Journal of Biological Chemistry, 2025) can be followed below.

Substitutions are numbered along the chain they refer to.

B1: neuron-specific gene 1 (NSG1) (natural protein, human, UniProt P42857 1-185, looked up)
chain: MVKLGNNFAEKGTKQPLLEDGFDTIPLMTPLDVNQLQFPPPDKVVVKTKTEYEPDRKKGKARPPQIAEFTVSITEGVTERFKVSVLVLFALAFLTCVVFLVVYKVYKYDRACPDGFVLKNTQCIPEGLESYYAEQDSSAREKFYTVINHYNLAKQSITRSVSPWMSVLSEEKLSEQETEAAEKSA
notes: Human NSG1, subcloned from the pPR3 yeast two-hybrid library vector into pcDNA3; UniProt P42857 is printed for the modelling; no tag is named, detection with an anti-NSG1 antibody; source: HEK293MSR, transiently transfected, in lysate (5 mM CHAPS)
B1: the “sortilin ectodomain accumulated in conditioned media of HEK293MSR cells cotransfected with NSG1 (Western blot), percent of WT sortilin” value with sortilin T770W [1] is 40 % of WT sortilin; with sortilin A773W [2], 46 % of WT sortilin. Also, the “NSG1 coimmunoprecipitated, normalized to immunoprecipitated sortilin, percent of WT sortilin” value was 146% with sortilin T770W [3], 130% in the assay with sortilin Y781K and 129% with sortilin A773W [4].
